Results published in paper PMC8240387 (2021).

B1: Mammalian cell-expressed N6 (mN6), broadly neutralising anti-HIV monoclonal antibody N6 expressed in HEK-293T cells (antibody)
chain 1: RAHLVQSGTAMKKPGASVRVSCQTSGYTFTAHILFWFRQAPGRGLEWVGWIKPQYGAVNFGGGFRDRVTLTRDVYREIAYMDIRGLKPDDTAVYYCARDRSYGDSSWALDAWGQGTTVVVSA
chain 2: YIHVTQSPSSLSVSIGDRVTINCQTSQGVGSDLHWYQHKPGRAPKLLIHHTSSVEDGVPSRFSGSGFHTSFNLTISDLQADDIATYYCQVLQFFGRGSRLHIK
modifications: N-glycosylated (size shift on PNGaseF digestion) | N-glycosylated (size shift on PNGaseF digestion)
B2: Plant-expressed N6 (pN6), broadly neutralising anti-HIV monoclonal antibody N6 expressed in glycoengineered ΔXF N. benthamiana (antibody)
chain 1: B1 chain 1
chain 2: B1 chain 2
modifications: N-glycosylated: GnGn 81.67%, fucosylated 0.69%, no xylosylation, 6.48% non-glycosylated | N-glycosylated: mature complex-type glycans, α(1,3)-fucose 20.93%, no xylosylation, no high mannose …

Experiments:
soluble FcγRIIIa = soluble FcγRIIIa (UniProt P08637 17-208); test: SPR
[1] = molecular target: recombinant, soluble HIV-1 UG37 gp140 (HIV-1 clade A strain 92UG037); test: SPR

soluble FcγRIIIa, sequence (P08637 17-208): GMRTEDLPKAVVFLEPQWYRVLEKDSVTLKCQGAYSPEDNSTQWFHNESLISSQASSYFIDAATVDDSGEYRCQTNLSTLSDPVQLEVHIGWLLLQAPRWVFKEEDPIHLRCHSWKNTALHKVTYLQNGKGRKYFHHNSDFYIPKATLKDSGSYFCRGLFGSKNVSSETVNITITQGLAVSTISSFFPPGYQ

| Binder | koff (soluble FcγRIIIa) | koff [1] |
| --- | --- | --- |
| B1 | 0.17 s⁻¹ | 0.000189 s⁻¹ |
| B2 | 0.016 s⁻¹ | 0.000115 s⁻¹ |
